The data set concerns the molecule itself. Kind of data set: SEC + other: SDS-PAGE densitometry and western blot of the co-purified native complex; native SYP/VAMP2 complex purified from calf brain synaptic vesicles in high cholesterol; Sephacryl S-300 in 20 mM NaH2PO4 pH 6.8, 0.2% Brij-35, 0.1% cholesterol, 40 mM sucrose; fractions analysed by SDS-PAGE, silver stain, western blot, densitometry.

B1: synaptophysin (SYP), native, from calf brain (natural protein, bovine (endogenous in calf brain), UniProt P20488 1-313, looked up)
chain: MLLLADMDVVNQLVAGGQFRVVKEPLGFVKVLQWVFAIFAFATCGSYSGELQLSVDCANKTKSDLNIEVEFEYPFRLHEVYFEAPTCQGDPKKIFLVGNYSSSAEFFVTVAVFAFLYSMGALATYIFLQNKYRENNKGPMLDFLATAVFAFMWLVSSSAWAKGLSDVKMATDPENIIKGMHVCHQPGNTCKELRDPVTSGLNTSVVFGFLNLVLWVGNLWFVFKETGWAAPFLRAPPGAPEKQPAPGDAYGQAGYGQGPGGYGPQDSYGPQGGYQPDYGQPASSGGGGYGPQGDYGQQGYGPQGAPTSFSNQM
notes: synaptophysin (SYP), bovine, native protein isolated from calf brain synaptic vesicles together with VAMP2; 4-pass integral membrane protein; Endogenous protein, co-purified with VAMP2 as a native complex; source: purified from calf brain synaptic vesicles (Triton X-100 extract with cholesterol; hydroxyapatite/celite flow through, anion exchange, size exclusion)
For orientation: stoichiometry N means a count of units in the complex or per binding partner. On to B1, for which the “stoichiometry N” value came to 6.
